# B1: anti-GPC-3 bi-specific T cell-engaging antibody clone 1C4 (bispecific antibody)
# VH: QVQLVQSGGGLVKPGRSLRLSCTASGFTFGDYAMHWVRQAPGKGLEWVAVISYDGSNKYYADSVKGRFTISRDNSKNTLYLQMNSLRAEDTAVYYCARDYGDYYRPYGMDVWGQGTT
# VL: DIQMTQSPSTLSASVGDRVTITCRASQSISKWLAWYQHKPGKAPKVLIYKASTLQSGVPSRFSGSGSGTEFTLTISSLQPEDFATYYCQQLNSYPLTFGGGTK
# scFv: DVQLVQSGAEVKKPGASVKVSCKASGYTFTRYTMHWVRQAPGQGLEWIGYINPSRGYTNYADSVKGRFTITTDKSTSTAYMELSSLRSEDTATYYCARYYDDHYCLDYWGQGTTVTVSSGEGTSTGSGGSGGSGGADDIVLTQSPATLSLSPGERATLSCRASQSVSYMNWYQQKPGKAPKRWIYDTSKVASGVPARFSGSGSGTDYSLTINSLEAEDAATYYCQQWSSNPLTFGGGTKVEIK
# notes: The Fab region of one arm of the IgG is replaced by the anti-CD3 scFv; knob-in-hole and LALA mutations in the Fc; also called 1C4 bi-specific
# B2: anti-GPC-3 bi-specific T cell-engaging antibody clone 4H1 (bispecific antibody)
# VH: EVQLVQSGGGVVQPGRSLRLSCAASGFTFSSYAMHWVRQAPGKGLEWVAVISYDGSNKYYADSVKGRFTISRDNSKNTLYLQMNSLRAEDTAVYYCARAPGLEDYWGQGTL
# VL: DIQMTQSPSSLSASVGDRVTITCRASQSISSYLNWYQQKPGTAPKLLIYAASSSLQSGVPSRFSGSGSGTDFALTISSLQPEDFATYYCLQDYNYPLTFGGGTK
# scFv: DVQLVQSGAEVKKPGASVKVSCKASGYTFTRYTMHWVRQAPGQGLEWIGYINPSRGYTNYADSVKGRFTITTDKSTSTAYMELSSLRSEDTATYYCARYYDDHYCLDYWGQGTTVTVSSGEGTSTGSGGSGGSGGADDIVLTQSPATLSLSPGERATLSCRASQSVSYMNWYQQKPGKAPKRWIYDTSKVASGVPARFSGSGSGTDYSLTINSLEAEDAATYYCQQWSSNPLTFGGGTKVEIK
# notes: The Fab region of one arm of the IgG is replaced by the anti-CD3 scFv; knob-in-hole and LALA mutations in the Fc; also called 4H1 bi-specific
# B3: anti-GPC-3 bi-specific T cell-engaging antibody clone 5C4 (bispecific antibody)
# VH: QVQLQESGGGLVKPGGSLRLSCAASGFTFSSYSMNWVRQAPGKGLEWVAVISYDGSNKYYADSVKGRFTISRDNSKNTLYLQMNSLRTEDTAVYYCARGAGPFTGFNWFDPWGQGTL
# VL: EIVLTQSPATLSVSPGERATLSCRASQSVDSYLAWYQQKPGQAPRLLIYSASTRATGIPARFSGTGSGTEFTLTISSLQSEDFAVYYCQQYKRWPTWTFGLGTR
# scFv: DVQLVQSGAEVKKPGASVKVSCKASGYTFTRYTMHWVRQAPGQGLEWIGYINPSRGYTNYADSVKGRFTITTDKSTSTAYMELSSLRSEDTATYYCARYYDDHYCLDYWGQGTTVTVSSGEGTSTGSGGSGGSGGADDIVLTQSPATLSLSPGERATLSCRASQSVSYMNWYQQKPGKAPKRWIYDTSKVASGVPARFSGSGSGTDYSLTINSLEAEDAATYYCQQWSSNPLTFGGGTKVEIK
# notes: The Fab region of one arm of the IgG is replaced by the anti-CD3 scFv; knob-in-hole and LALA mutations in the Fc; also called 5C4 bi-specific
# B4: anti-GPC-3 bi-specific T cell-engaging antibody clone 2B5 (bispecific antibody)
# VH: QVQLQESGGGVVQPGRSLRLSCAASGFTFSSYAMHWVRQAPGKGLEWVAVISYDGSNKYYADSVKGRFTISRDNSKNTLYLQMNSLRAEDTAVYYCAKEGTYYYDSSGYWDYYYGMDVWGQGTT
# VL: DVVMTQSPLSLPVTPGEPASISCRSSQSLLDSDGYNFLDWYVQKPGQSPQRLIYLGSIRASGVPDRFSGSGSGTDFTLKISRVEADDVGVYYCMQALQTPWTFGQGTK
# scFv: DVQLVQSGAEVKKPGASVKVSCKASGYTFTRYTMHWVRQAPGQGLEWIGYINPSRGYTNYADSVKGRFTITTDKSTSTAYMELSSLRSEDTATYYCARYYDDHYCLDYWGQGTTVTVSSGEGTSTGSGGSGGSGGADDIVLTQSPATLSLSPGERATLSCRASQSVSYMNWYQQKPGKAPKRWIYDTSKVASGVPARFSGSGSGTDYSLTINSLEAEDAATYYCQQWSSNPLTFGGGTKVEIK
# notes: The Fab region of one arm of the IgG is replaced by the anti-CD3 scFv; knob-in-hole and LALA mutations in the Fc; also called 2B5 bi-specific
# B5: anti-GPC-3 IgG1 clone 1D8 (antibody, V domains shown)
# VH: QVQLVQSGAEVKKPGASVKVSCKASGYTFTSYGISWVRQAPGQGLEWMGWISAYNGNTNYAQKLQGRVTMTTDTSTSTAYMELRSLRSDDTAVYYCARDGGLIAAAFGYYYYGMDVWGQGTT
# VL: EIVLTQSPGTLSLSPGERATLSCRASQSVSSYLAWYQQKPGQAPRLLIYGASSRATGIPDRFSGSGSGTDFTLTISRLEPEDFAVYYCQQYERPPTFGGGTK
# notes: Tested as IgG1; also called monoclonal antibody 1D8
# B6: anti-GPC-3 IgG1 clone 5C4 (antibody, V domains shown)
# VH: QVQLQESGGGLVKPGGSLRLSCAASGFTFSSYSMNWVRQAPGKGLEWVAVISYDGSNKYYADSVKGRFTISRDNSKNTLYLQMNSLRTEDTAVYYCARGAGPFTGFNWFDPWGQGTL
# VL: EIVLTQSPATLSVSPGERATLSCRASQSVDSYLAWYQQKPGQAPRLLIYSASTRATGIPARFSGTGSGTEFTLTISSLQSEDFAVYYCQQYKRWPTWTFGLGTR
# notes: Tested as IgG1; also called monoclonal antibody 5C4
# B7: humanized GC33 IgG1 (antibody, V domains shown)
# VH: QVQLVESGAEVKKPGASVKVSCKASGYTFTDYEMHWVRQAPGQGLEWMGALDPKTGDTAYSQKFKGRVTITADESTSTAYMELSSLRSEDTAVYYCARFYSYTYWGQGTLVTVSS
# VL: DVVMTQSPLSLPVTPGEPASISCRSSQSLVHSNGNTYLHWYLQKPGQSPQLLIYKVSNRFSGVPDRFSGSGSGTDFTLKISRVEAEDVGVYYCSQNTHVPPTFGQGTKLEIK
# Key:
# [1] = biological target: T1, human CD3 on human T cells (human, UniProt P07766 23-207); experiment: flow cytometry on human T cells (CD3 Positive), % positive cells
# T1 construct: whole, on cells; CD3 is a complex of several chains on T cells; also called CD3^Positive human T cells
# Description: (§1) The ability of these anti-GPC-3 bi-specific T cell-engaging antibodies to specifically recognize and bind to both GPC-3 and human CD3 molecules on cell surface was measured using HepG2 (GPC-3^Positive), SK-Hep1 (GPC-3^Negative), and human T cells (CD3^Positive) cells.
# (§2) Briefly, HepG2 (GPC-3^Positive), SK-Hep1 (GPC-3^Negative) and human T cells (CD3^Positive) were seeded in cell suspension at 100000 per well in 96-well round-bottom plate prior to incubation with different concentrations of anti-GPC-3 bi-specific T cell-engaging antibodies. Binding was measured by flow cytometry using a secondary labelled antibody. In this assay, all 5 anti-GPC-3 bi-specific T-cell engaging antibodies bound strongly to the GPC-3 expressing cell HepG2 (FIG. 8B) as well as human T cells expressing CD3 (FIG. 8D).
# [2] = biological target: T2, human GPC-3 on the surface of HepG2 and Hep3B cells (human, UniProt P51654 25-554); experiment: flow cytometry on HepG2 (GPC-3 Positive) cells, % positive cells
# T2 construct: whole, on cells; Endogenous GPC-3 of human hepatoma cell lines; also called GPC-3 expressing HepG2 cells; GPC-3^High HepG2
# Description: as §1, §2
# [3] = biological target: T2, human GPC-3 on the surface of HepG2 and …; experiment: flow cytometry on HepG2 (GPC-3 Positive) cells, mean-APC
# Description: as §1, §2
# [4] = biological target: T3, recombinant mouse GPC-3 protein (mouse, UniProt Q8CFZ4 25-558, limits assumed, biotinylated (sites not given)); experiment: cross-reactivity binding ELISA with biotinylated recombinant GPC-3, absorbance 450nm-570nm
# T3 construct: Biotinylated for the cross-reactivity ELISA; also called mouse homolog of GPC-3 protein
# T3 sequence (Q8CFZ4 25-558 limits assumed): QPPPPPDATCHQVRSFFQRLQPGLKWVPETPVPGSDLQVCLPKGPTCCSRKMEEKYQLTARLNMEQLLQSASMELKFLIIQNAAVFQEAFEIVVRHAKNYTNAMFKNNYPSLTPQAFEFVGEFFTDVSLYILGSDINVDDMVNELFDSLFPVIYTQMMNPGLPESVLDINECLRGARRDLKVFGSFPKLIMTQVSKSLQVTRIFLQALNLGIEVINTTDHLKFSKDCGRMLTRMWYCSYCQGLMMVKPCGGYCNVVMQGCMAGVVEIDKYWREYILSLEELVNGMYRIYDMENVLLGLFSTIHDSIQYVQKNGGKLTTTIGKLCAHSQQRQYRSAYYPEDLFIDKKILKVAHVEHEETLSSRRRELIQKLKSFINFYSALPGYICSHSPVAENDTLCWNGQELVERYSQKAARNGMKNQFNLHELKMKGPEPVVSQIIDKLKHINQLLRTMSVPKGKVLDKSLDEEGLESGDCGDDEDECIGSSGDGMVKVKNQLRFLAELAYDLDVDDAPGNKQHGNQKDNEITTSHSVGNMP
# [5] = biological target: T4, mouse GPC-3 on the surface of transduced cells (Hepa1-6-mGPC-3, MC38-mGPC-3) (mouse, UniProt Q8CFZ4 25-553); experiment: flow cytometry histograms, 20 nM antibody, Hepa1-6-mGPC-3 against parental Hepa1-6 cells
# T4 construct: whole, on cells
# T4 sequence (Q8CFZ4 25-553 limits assumed): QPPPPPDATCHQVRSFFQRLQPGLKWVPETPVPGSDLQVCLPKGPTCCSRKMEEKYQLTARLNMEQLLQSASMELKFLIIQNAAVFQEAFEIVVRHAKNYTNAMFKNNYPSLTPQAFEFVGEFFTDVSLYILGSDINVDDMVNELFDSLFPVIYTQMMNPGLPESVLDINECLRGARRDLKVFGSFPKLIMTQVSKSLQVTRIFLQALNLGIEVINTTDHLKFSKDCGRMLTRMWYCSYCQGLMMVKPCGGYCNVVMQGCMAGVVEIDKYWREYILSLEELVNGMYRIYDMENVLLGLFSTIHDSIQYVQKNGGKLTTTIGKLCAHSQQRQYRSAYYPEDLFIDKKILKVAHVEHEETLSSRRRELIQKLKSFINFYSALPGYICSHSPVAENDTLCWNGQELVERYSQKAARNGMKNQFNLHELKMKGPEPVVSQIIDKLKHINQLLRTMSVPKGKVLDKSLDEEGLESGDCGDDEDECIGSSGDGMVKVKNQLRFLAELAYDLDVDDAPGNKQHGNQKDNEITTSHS
# [6] = biological target: T5, recombinant human GPC-3 protein (human, UniProt P51654 25-559, limits assumed); experiment: binding ELISA with biotin-hGPC-3, EC50 calculated from the curves of FIG. 1A to 1C
# T5 construct: also called glypican-3; recombinant GPC-3 protein
# [7] = biological target: T5, recombinant human GPC-3 protein; experiment: SPR, Biacore T200
# Description: Affinity of 24 anti-GPC-3 IgG₁ antibodies was measured via Surface Plasmon Resonance (SPR) analysis using Biacore™ T200 system and shown in Table E3 (below).
# [8] = biological target: T2, human GPC-3 on the surface of HepG2 and …; experiment: flow cytometry on Hep3B (GPC-3 Medium) cells, MFI against antibody (pM)
# Description: (§3) The ability of anti-GPC-3 antibodies to specifically recognize and bind GPC-3 on the surface of cells was measured using HepG2 (GPC-3^High), Hep3B (GPC-3^Medium) and SK-Hep1 (GPC-3^Negative) cells.
# (§4) Briefly, HepG2 (GPC-3^High), Hep3B (GPC-3^Medium) and SK-Hep1 (GPC-3^Negative) cells were seeded in cell suspension at 50000 per well in 96-well round-bottom plate before incubation with different concentrations of anti-GPC-3 antibodies. Binding was measured by flow cytometry using a secondary labelled antibody.
# [9] = biological target: T2, human GPC-3 on the surface of HepG2 and …; experiment: flow cytometry on HepG2 (GPC-3 High) cells, MFI against antibody (pM)
# Description: as §3, §4
# [10] = biological target: T5, recombinant human GPC-3 protein; experiment: binding ELISA, absorbance 450nm-570nm against Biotin-hGPC-3 (nM), batch of FIG. 1C
# [11] = biological target: T5, recombinant human GPC-3 protein; experiment: binding ELISA, absorbance 450nm-570nm against Biotin-hGPC-3 (nM), batch of FIG. 1A
# [12] = biological target: T5, recombinant human GPC-3 protein; experiment: binding ELISA, absorbance 450nm-570nm against Biotin-hGPC-3 (nM), batch of FIG. 1B
# [13] = biological target: T5, recombinant human GPC-3 protein; experiment: binding ELISA with biotin-hGPC-3, EC50 calculated from the curves of FIG. 1A to 1C; footnote: * Average value from 3 batches
# [14] = biological target: T2, human GPC-3 on the surface of HepG2 and …; experiment: flow cytometry on HepG2 (GPC-3 High) cells, MFI against antibody (pM); remark: listed apart in the source
binder,measurement,setting,value
B1,EC50 (read off the curve),[1],~200 nM
same,EC50 (read off the curve),[2],~10 nM
same,EC50 (read off the curve),[3],~700 nM
B2,EC50 (read off the curve),[1],~300 nM
same,EC50 (read off the curve),[2],~100 nM
B3,EC50 (read off the curve),[1],~100 nM
same,EC50 (read off the curve),[2],~20 nM
same,EC50 (read off the curve),[3],~800 nM
B4,EC50 (read off the curve),[1],~400 nM
same,EC50 (read off the curve),[2],~100 nM
B5,binding result,[4],no binding
same,binding result,[5],no binding (tested: 20 nM)
same,EC50,[6],9.01 nM
same,Kd,[7],13.7 nM
same,koff,[7],0.0053 s⁻¹
same,kon,[7],388000 M⁻¹ s⁻¹
B6,EC50 (read off the curve),[8],~0.04 nM
same,EC50 (read off the curve),[9],~0.1 nM
same,EC50,[6],0.348 nM
same,Kd,[7],9.02 nM
same,koff,[7],0.00161 s⁻¹
same,kon,[7],179000 M⁻¹ s⁻¹
B7,EC50 (read off the curve),[10],~1 nM
same,EC50 (read off the curve),[11],~0.4 nM
same,EC50 (read off the curve),[12],~0.9 nM
same,EC50,[13],0.803 nM
same,EC50 (read off the curve),[9],~0.7 nM
same,EC50 (read off the curve),[14],~0.8 nM
